The supplement of paper PMC6757056
± gives the standard deviation of the averaged measurements.

B1: library; a variant is named by its letters at N, in order (parent)
chain: GCUGUCACCGGUGUAUUACCCUAGUGGUCGACCGGUCUGAUGAGUCUNNNNNNAGACGAAACAGC

What was measured:
[1] = variants of: B1; test: normalized RNA/DNA level with ligand (relative to sTRSVctl = 100) (log10 (% of sTRSVctl)); ligand: hypoxanthine (xanthine aptamer); higher = less ribozyme self-cleavage, higher mRNA level; conditions: ligand concentration (+) RNA-Seq: 5 mM, HEK293T, reporter: mCherry (pCS4076), ligand present: yes
In short: (§1)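 RNA level was computed as RNA reads over DNA reads divided by a spiked-in non-cleaving sequence or by the top sequences, then scaled and log-transformed. Scaling was ×100 with log10, the top group was 25 sequences, and the threshold was ≥100 DNA reads. The reads came from HEK293T cells transfected at 4 µg per 6-well well with ribozyme switch library plasmids (mCherry, or eGFP in some ligand experiments). Total RNA was extracted with EDTA 72 h after transfection, with any ligand added 1 h before it.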

[2] = variants of: B1; test: normalized RNA/DNA level without ligand (relative to sTRSVctl = 100) (log10 (% of sTRSVctl)); ligand: hypoxanthine (xanthine aptamer); higher = less ribozyme self-cleavage, higher mRNA level; conditions: HEK293T, reporter: mCherry (pCS4076), ligand present: no
In short: as §1

| Variant | normalized RNA/DNA level with ligand (log10) [1] | normalized RNA/DNA level without ligand (log10) [2] |
| --- | --- | --- |
| ACACUU | 1.95 ± 0.059 | 1.83 ± 0.059 |
| ACACUC | 1.96 ± 0.023 | 1.97 ± 0.063 |
| ACACUA | 1.94 ± 0.053 | 1.801 ± 0.0044 |
| UCAUAU | 1.88 ± 0.029 | 1.77 ± 0.041 |
| ACAUAU | 1.89 ± 0.072 | 1.6935 ± 0.0011 |
| ACAUAC | 1.94 ± 0.034 | 1.823 ± 0.015 |
| GCAGAC | 1.89 ± 0.021 | 1.549 ± 0.0076 |
| UCAGGC | 1.96 ± 0.073 | 1.96 ± 0.03 |
| UCAGGU | 1.87 ± 0.052 | 1.654 ± 0.0062 |
| CCACGU | 1.93 ± 0.069 | 1.827 ± 0.0023 |
| CCACGC | 2.01 ± 0.015 | 1.864 ± 0.0022 |
| CCACGG | 1.91 ± 0.028 | 1.85 ± 0.025 |
| CCACGA | 1.95 ± 0.089 | 1.881 ± 0.0042 |
| ACAGUA | 1.908 ± 0.015 | 1.76 ± 0.029 |
| ACAGUG | 1.85 ± 0.039 | 1.35 ± 0.021 |
| ACAUCC | 1.98 ± 0.049 | 1.931 ± 0.0044 |
| ACAUCA | 1.96 ± 0.046 | 1.91 ± 0.029 |
| ACAUCU | 1.97 ± 0.024 | 1.87 ± 0.073 |
| GCAGUU | 1.9707 ± 0.00023 | 1.855 ± 0.015 |
| GCAGUA | 1.948 ± 0.012 | 1.772 ± 0.0069 |
| CCAGCU | 1.99 ± 0.097 | 1.94 ± 0.045 |
| CCAGCA | 1.966 ± 0.019 | 1.87 ± 0.043 |
| CCAGCG | 1.917 ± 0.0021 | 1.82 ± 0.038 |
| UCAGAC | 1.964 ± 0.0055 | 1.92 ± 0.042 |

| Variant | normalized RNA/DNA level with ligand (log10) [1] | normalized RNA/DNA level without ligand (log10) [2] |
| --- | --- | --- |
| UCAGAA | 1.9 ± 0.044 | 1.665 ± 0.0042 |
| UCAGAU | 1.96 ± 0.037 | 1.76 ± 0.066 |
| UCAGAG | 1.9 ± 0.046 | 1.58 ± 0.066 |
| CCAGGU | 1.99 ± 0.067 | 1.833 ± 0.0077 |
| CCAGGC | 1.97 ± 0.041 | 1.86 ± 0.061 |
| CCAGGG | 1.89 ± 0.11 | 1.37 ± 0.044 |
| CCAGGA | 1.97 ± 0.033 | 1.83 ± 0.022 |
| GCCAAU | 1.95 ± 0.053 | 1.798 ± 0.0018 |
| GCCAAC | 1.927 ± 0.014 | 1.74 ± 0.039 |
| GCACCA | 1.939 ± 0.016 | 1.88 ± 0.023 |
| GCACCG | 1.89 ± 0.023 | 1.62 ± 0.058 |
| GCACCC | 1.86 ± 0.021 | 1.78 ± 0.035 |
| UCACUC | 1.99 ± 0.02 | 2.03 ± 0.026 |
| UCACUA | 1.92 ± 0.051 | 1.83 ± 0.088 |
| UCACUU | 1.93 ± 0.043 | 1.88 ± 0.025 |
| UCAUUA | 1.927 ± 0.0081 | 1.884 ± 0.0033 |
| UCAUUG | 1.91 ± 0.026 | 1.72 ± 0.043 |
| UCAUUC | 2.0015 ± 0.00059 | 1.9887 ± 0.00019 |
| GCAGCU | 2.014 ± 0.019 | 1.95 ± 0.038 |
| GCAGCG | 1.97 ± 0.028 | 1.62 ± 0.042 |
| UCCAAC | 2 ± 0.021 | 1.9 ± 0.033 |
| GCAUGA | 1.94 ± 0.042 | 1.71 ± 0.029 |
| GCAUGU | 1.9 ± 0.03 | 1.68 ± 0.043 |
| ACAGGC | 1.89 ± 0.1 | 1.72 ± 0.038 |

| Variant | normalized RNA/DNA level with ligand (log10) [1] | normalized RNA/DNA level without ligand (log10) [2] |
| --- | --- | --- |
| UCAGUG | 1.93 ± 0.061 | 1.77 ± 0.067 |
| UCAGUC | 1.96 ± 0.056 | 1.9668 ± 0.0014 |
| ACAGCU | 1.92 ± 0.027 | 1.87 ± 0.033 |
| ACAGCC | 1.97 ± 0.021 | 1.919 ± 0.01 |
| ACAGCA | 1.94 ± 0.032 | 1.81 ± 0.028 |
| CCAUCG | 1.91 ± 0.024 | 1.79 ± 0.019 |
| CCAUCA | 1.97 ± 0.056 | 2.01 ± 0.049 |
| CCAUCU | 2.036 ± 0.0026 | 1.951 ± 0.015 |
| CCAUCC | 2 ± 0.087 | 1.975 ± 0.015 |
| CCAUUA | 1.929 ± 0.017 | 1.84 ± 0.039 |
| CCAUUU | 1.91 ± 0.021 | 1.86 ± 0.066 |
| CCAUUG | 1.9 ± 0.056 | 1.8 ± 0.022 |
| CCACCU | 2.033 ± 0.0077 | 1.93 ± 0.053 |
| CCACCG | 1.99 ± 0.028 | 1.84 ± 0.2 |
| UCACCC | 1.97 ± 0.026 | 1.89 ± 0.029 |
| CCCAAC | 1.96 ± 0.072 | 1.87 ± 0.023 |
| CCCAAU | 1.93 ± 0.026 | 1.83 ± 0.04 |
| CCAUGU | 1.913 ± 0.013 | 1.828 ± 0.016 |
| CCAUGC | 1.95 ± 0.051 | 1.88 ± 0.069 |
| ACAUGC | 1.914 ± 0.015 | 1.77 ± 0.024 |
| ACACGC | 1.94 ± 0.033 | 1.71 ± 0.03 |
| ACCAAG | 1.89 ± 0.088 | 1.5 ± 0.098 |
| CCAGUA | 1.94 ± 0.054 | 1.85 ± 0.038 |
| CCAGUG | 1.93 ± 0.051 | 1.69 ± 0.077 |

| Variant | normalized RNA/DNA level with ligand (log10) [1] | normalized RNA/DNA level without ligand (log10) [2] |
| --- | --- | --- |
| CCAGUU | 2.01 ± 0.029 | 1.928 ± 0.0095 |
| CCAGUC | 1.99 ± 0.038 | 1.974 ± 0.0045 |
| UCACGU | 1.92 ± 0.042 | 1.78 ± 0.062 |
| UCACGC | 1.94 ± 0.033 | 1.78 ± 0.13 |
| UCACGG | 1.91 ± 0.043 | 1.79 ± 0.051 |
| UCACGA | 1.923 ± 0.011 | 1.8 ± 0.043 |
| CCACUU | 1.94 ± 0.024 | 1.914 ± 0.019 |
| CCACUC | 2.02 ± 0.059 | 1.98 ± 0.036 |
| CCACUA | 1.97 ± 0.042 | 1.86 ± 0.071 |
| GCAUAG | 1.862 ± 0.011 | 1.43 ± 0.078 |
| GCAUAC | 1.904 ± 0.014 | 1.62 ± 0.049 |
| CCAUAA | 1.914 ± 0.01 | 1.8 ± 0.031 |
| CCAUAG | 1.894 ± 0.013 | 1.55 ± 0.06 |
| UCAUGC | 1.95 ± 0.0044 | 1.882 ± 0.014 |
| UCAUGU | 1.92 ± 0.038 | 1.628 ± 0.0081 |
| UCAUGG | 1.9 ± 0.034 | 1.69 ± 0.049 |
| UCAGCA | 1.99 ± 0.021 | 1.88 ± 0.03 |
| UCAGCU | 1.99 ± 0.03 | 1.948 ± 0.014 |
| UCAGCC | 2.04 ± 0.02 | 1.997 ± 0.0026 |
| UCAUCC | 2.032 ± 0.0044 | 2 ± 0.049 |
| UCAUCU | 2.026 ± 0.011 | 1.99 ± 0.059 |
| UCAUCG | 1.99 ± 0.049 | 1.83 ± 0.058 |
| GCAUUA | 1.92 ± 0.023 | 1.877 ± 0.01 |
| GCAUUC | 2 ± 0.023 | 1.81 ± 0.047 |

| Variant | normalized RNA/DNA level with ligand (log10) [1] | normalized RNA/DNA level without ligand (log10) [2] |
| --- | --- | --- |
| GCAUUU | 1.922 ± 0.019 | 1.88 ± 0.042 |
| GCACUC | 1.945 ± 0.0064 | 1.873 ± 0.0092 |
| ACAGAA | 1.922 ± 0.012 | 1.7472 ± 0.0012 |
| ACAGAC | 1.92 ± 0.078 | 1.838 ± 0.0042 |
| CCAGAC | 1.954 ± 0.0047 | 1.877 ± 0.011 |
| CCAGAU | 1.9387 ± 0.00089 | 1.8 ± 0.057 |
| ACAUUG | 1.91 ± 0.057 | 1.53 ± 0.043 |
| ACAUUU | 1.9 ± 0.04 | 1.796 ± 0.01 |
| ACAUUA | 1.926 ± 0.0045 | 1.85 ± 0.036 |
| GCAUCA | 1.94 ± 0.041 | 1.89 ± 0.035 |
| GCAUCU | 1.98 ± 0.039 | 1.87 ± 0.004 |
| GCAUCC | 1.86 ± 0.069 | 1.82 ± 0.025 |
| GCACGA | 1.925 ± 0.0075 | 1.75 ± 0.077 |
| GCACGU | 1.91 ± 0.053 | 1.73 ± 0.032 |
| GCACGC | 1.96 ± 0.06 | 1.86 ± 0.043 |
| GCAGGC | 1.861 ± 0.0028 | 1.65 ± 0.036 |
| GCAGGU | 1.93 ± 0.031 | 1.73 ± 0.056 |
| ACACCU | 1.952 ± 0.016 | 1.84 ± 0.024 |
| ACACCG | 1.9 ± 0.12 | 1.55 ± 0.078 |
| ACACCA | 1.97 ± 0.069 | 1.873 ± 0.0035 |
